# Source: article PMC9263169, “Aptamer-antibody hybrid ELONA that uses hybridization chain reaction to detect a urinary biomarker EN2 for bladder and prostate cancer”
# T1: EN2 (Engrailed-2), recombinant (human, UniProt P19622 1-333)
# T1 sequence: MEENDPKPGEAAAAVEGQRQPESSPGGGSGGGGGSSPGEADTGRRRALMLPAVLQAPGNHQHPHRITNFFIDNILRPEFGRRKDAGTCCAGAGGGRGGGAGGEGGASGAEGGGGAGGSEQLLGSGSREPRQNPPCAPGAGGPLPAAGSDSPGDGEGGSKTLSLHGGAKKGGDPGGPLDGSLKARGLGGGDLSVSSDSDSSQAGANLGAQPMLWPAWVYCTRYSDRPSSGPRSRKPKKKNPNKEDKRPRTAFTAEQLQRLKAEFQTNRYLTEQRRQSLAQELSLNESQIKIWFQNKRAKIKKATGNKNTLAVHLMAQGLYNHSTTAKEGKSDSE
# Columns and labels:
# [1] = target: T1, EN2 (Engrailed-2), recombinant; test: magnetic-bead fluorescence assay (His-EN2 on NTA beads); 5 mM Mg2+; 20 mM Tris-HCl, 50 mM NaCl, 5 mM KCl, 5 mM MgCl2, pH 8.0, room temperature, 1 h; conditions: protein: recombinant; tags: N-terminal His (pET28a); label: 5'-FAM
# [2] = target: T1, EN2 (Engrailed-2), recombinant; test: plate fluorescence binding (EN2 immobilized); signal saturates at 250 nM EN2; 20 mM Tris-HCl, 50 mM NaCl, 5 mM KCl, 5 mM MgCl2, pH 8.0, room temperature, 1 h; conditions: protein: recombinant; tags: N-terminal His (pET28a); label: 5'-FAM; hairpin
Binder,Kd [1] [nM],binding result [2]
AGCGGATCCGAGGTGAGGAGCGCCGGTGAGACTCCTTCATTCTATCTGCT (structured_DNA) [EBA (trimmed H90)],8.26,
CGCATAATTACCTCCAGAAGGAGAGGTAATTATGCG (structured_DNA) [EN2 motif hairpin DNA],,binds
